Measurements: US20070009938

How the values were obtained:
Assay in all cases: EMSA
[1] = system: wt bZIP (GCN4 basic region - C/EBP leucine zipper hybrid), synthetic (artificial (yeast GCN4 / C/EBP))
[2] = biological target: 11A alanine mutant bZIP (GCN4 basic region - C/EBP zipper) (artificial (yeast GCN4 / C/EBP)) (UniProt P03069); conditions: group statement
[3] = biological target: 18A alanine mutant bZIP (GCN4 basic region - C/EBP zipper) (artificial (yeast GCN4 / C/EBP)) (UniProt P03069); conditions: group statement
[4] = biological target: 4A alanine mutant bZIP (GCN4 basic region - C/EBP zipper) (artificial (yeast GCN4 / C/EBP)) (UniProt P03069); conditions: group statement
[5] = system: wt bZIP (GCN4 basic region - C/EBP leucine zipper hybrid), expressed (artificial (yeast GCN4 / C/EBP))
[6] = also DNase I footprinting (p65)
[7] = higher-order bandshifts excluded

Sequence: GATCTGGATGACTCATTTTTTTTT (double strand) [WT AP-1 (his3 flanks)]
- Kd ([1]; apparent monomeric Kd, 2 mM MgCl2, 1 mM CaCl2, pH 7.5, 200 mM guanidine HCl): 13 nM

Sequence: TGCAGGAACCACGTGGTGAAGGTT (double strand) [Max E-box]
- Kd ([1]; saturation not achieved): 840 nM
- binding signal (fold weaker than AP-1) ([2]; both E-box sites): 10
- binding signal (fold weaker than AP-1) ([3]; both E-box sites): 10
- binding signal (fold weaker than AP-1) ([4]; both E-box sites): 10

Sequence: TGCAGGAAGACTAACCTGAAGGTT (double strand) [Partial site / NON2]
- Kd ([1]; apparent monomeric Kd, pH 7.5): 280 nM

Sequence: TGCAGGAAGCACGTAGTGAAGGTT (double strand) [HRE]
- Kd ([1]; saturation not achieved): 1400 nM
- binding signal (fold weaker than AP-1) [2, 6]: 7
- binding signal (fold weaker than AP-1) [3, 6]: 7
- binding signal (fold weaker than AP-1) [4, 6]: 7

Sequence: TGCAGGAATCACGTGATGAAGGTT (double strand) [Arnt E-box]
- Kd ([1]; saturation not achieved): 570 nM
- binding signal (fold weaker than AP-1) ([2]; both E-box sites): 10
- binding signal (fold weaker than AP-1) ([3]; both E-box sites): 10
- binding signal (fold weaker than AP-1) ([4]; both E-box sites): 10

Sequence: TGCAGGAATCACTGAAGGTT (double strand) [Arnt E-box half site]
- Kd ([1]; saturation not achieved): > 4000 nM

Sequence: TGCAGGAATGACGTCATGAAGGTT (double strand) [CRE]
- Kd ([1]; apparent monomeric Kd, pH 7.5): 12 nM

Sequence: TGCAGGAATGACTCATTGAAGGTT (double strand) [AP-1]
- Kd ([1]; apparent monomeric Kd, pH 7.5): 13 nM
- Kd ([5]; higher-order bandshifts excluded, FIG. 6 legend gives 568 nM for wt bZIP with AP-1 in another experiment (TKMC buffer)): 4.8 nM

Sequence: TGCAGGAATGACTGAAGGTT (double strand) [AP-1 half site]
- Kd ([1]; apparent monomeric Kd, pH 7.5): 84 nM
- Kd [5, 7]: 23 nM

Sequence: TGCAGGAATTGCGCAATGAAGGTT (double strand) [C/EBP]
- Kd ([1]; apparent monomeric Kd, pH 7.5): 120 nM
- binding signal (fold weaker than AP-1) [2, 6]: 3
- binding signal (fold weaker than AP-1) [3, 6]: 3
- binding signal (fold weaker than AP-1) [4, 6]: 3
- Kd [5, 7]: 29 nM

Sequence: TGCAGGAATTGCGTGATGAAGGTT (double strand) [XRE1]
- Kd ([1]; apparent monomeric Kd, pH 7.5): 240 nM
- binding signal (fold weaker than AP-1) [2, 6]: 7
- binding signal (fold weaker than AP-1) [3, 6]: 7
- binding signal (fold weaker than AP-1) [4, 6]: 7

Sequence: TGCAGGAATTGCTGAAGGTT (double strand) [C/EBP half site]
- Kd ([1]; saturation not achieved): > 5000 nM
- Kd ([5]; saturation not achieved): > 1500 nM
